Assay results published in CN114634568A (SHENZHEN PHENPENG BIOTHERAPY CO LTD, dated 2022).

How the values were obtained:
[1] = biological target: T1, hu(人)BCMA ECD His, ACRO, BCA-H522y (human, UniProt Q02223 1-54); assay: ELISA, hu BCMA ECD His coated at 2 μg/mL
T1 construct: extracellular domain; Bought reagent; also called hu BCMA ECD His; BCMA抗原; not shown: His tag
T1 sequence (looked up): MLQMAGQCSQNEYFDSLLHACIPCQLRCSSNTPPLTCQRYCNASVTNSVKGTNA

[2] = biological target: T2, 人BCMA全长 (K562-BCMA细胞株和CHO-BCMA细胞株表面表达) (human, UniProt Q02223 1-184); assay: flow cytometry on K562-BCMA and CHO-BCMA cells, APC anti-human IgG Fc
T2 construct: whole, on cells; also called BCMA表达阳性的细胞
T2 sequence (looked up): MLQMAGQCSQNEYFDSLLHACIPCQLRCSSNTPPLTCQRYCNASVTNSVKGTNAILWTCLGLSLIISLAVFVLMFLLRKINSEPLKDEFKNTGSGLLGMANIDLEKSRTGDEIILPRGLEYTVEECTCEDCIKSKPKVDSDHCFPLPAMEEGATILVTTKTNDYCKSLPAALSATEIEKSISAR

h BCMA ECD mFc = biological target: T3, h BCMA ECD mFc (human, UniProt Q02223 1-54); assay: BLI (Fortebio), h BCMA ECD mFc 3 ug/mL loaded on AMC biosensor, antibody in solution
T3 construct: extracellular domain; also called hBCMA-mFc; not shown: mouse Fc (mFc)
T3 sequence (looked up): T1 sequence (looked up)

Measured: binding result

B1: 鼠源BCMA抗体 mVH-mVL (CN201911298620.7专利中5E2 BCMA抗体) (antibody, V domains shown)
VH: EVQLQQSGPELIKPGASVKMSCKASGYTFTSYVVHWVKQKPGQGLEWIGYIIPYNDDTKYNEKFKGKATLTSDKSSSTAYMELSSLTSEDSAVYYCARWDYDDGYFDYWGQGTTLTVSS
VL: DVVMTQTPLSLPVTLGDQASISCRSSQSLLHSNGNTYLHWYLQKPGQSPKLLIYKVSNRFSGVPDRFSGSGSGTDFTLKISRVEAEDLGVYFCSQITHIPFTFGSGTKLEIKR
notes: In flow cytometry the detection reagent was APC anti-human IgG Fc
binds: [1] | [2] | h BCMA ECD mFc
